Measurements from patent EP4578463A1, “ENDO-180 TARGETED ANTIBODY-DRUG CONJUGATES” (Oncomatryx Biopharma, S.L., priority 2023, dated 2025).

Target: T1, human Endo180-moFc domains I-II (aa 31-232) (human, UniProt Q9UBG0 31-232)
T1 construct: also called huEndo180-moFc DI-II; not shown: murine Fc domain
T1 sequence: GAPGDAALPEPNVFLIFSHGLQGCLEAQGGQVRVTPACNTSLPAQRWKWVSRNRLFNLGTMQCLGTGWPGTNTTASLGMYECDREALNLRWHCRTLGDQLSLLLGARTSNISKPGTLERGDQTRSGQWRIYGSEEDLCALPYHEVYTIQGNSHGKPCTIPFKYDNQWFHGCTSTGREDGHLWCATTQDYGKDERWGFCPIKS
Test: ELISA, immobilized human Endo180-moFc domains

B1: Human IgG1 G7V with a wildtype γ1 heavy chain (antibody, V domains shown)
VH: EVQLVESGGGLVKPGGSLRLSCAASGFTFSSYSMNWVRQAPGKGLEWVANIKPDGSERHSVDSVKGRFTISRDNSKNSLYLQMNSLRAEDTAVYYCARPGAGRLDYWGQGTLVTVSS
VL: SSELTQDPAVSVALGQTVRITCQGDSLRSYYASWYQQKPGQAPVLVVYGKNNRPSGIPDRFSGSSSGNTASLTITGAQAEDEADYYCNSRDSSGNPWAFGGGTKVTVLG
notes: Naked antibody, made in HEK293-6E (lab scale) or CHO (1 L scale); also called IgG G7V; OMTX007-G7V
B1: no binding (tested: titrated from 0.1 pM to 100 nM).
